# From paper PMC12607895
# How the values were obtained:
# CD46 (human) = CD46 (human) (UniProt P15529); experiment: SPR; Biacore T200; CD46 or CAR amine-coupled to a CM5 chip (2,390-2,640 RU CD46, 2,380-2,870 RU CAR); whole virions as analyte, twofold series 50-12.5 µg/mL, 120 s at 30 µL/min; 25°C, HBS-EP+ (10 mM HEPES, 150 mM NaCl, 3 mM EDTA, 0.005% P20, pH 7.4); performed once
# [1] = molecular target: coxsackievirus and adenovirus receptor (CAR) (UniProt P78310); experiment: as above
# Sequence of coxsackievirus and adenovirus receptor (CAR) (P78310 20-365): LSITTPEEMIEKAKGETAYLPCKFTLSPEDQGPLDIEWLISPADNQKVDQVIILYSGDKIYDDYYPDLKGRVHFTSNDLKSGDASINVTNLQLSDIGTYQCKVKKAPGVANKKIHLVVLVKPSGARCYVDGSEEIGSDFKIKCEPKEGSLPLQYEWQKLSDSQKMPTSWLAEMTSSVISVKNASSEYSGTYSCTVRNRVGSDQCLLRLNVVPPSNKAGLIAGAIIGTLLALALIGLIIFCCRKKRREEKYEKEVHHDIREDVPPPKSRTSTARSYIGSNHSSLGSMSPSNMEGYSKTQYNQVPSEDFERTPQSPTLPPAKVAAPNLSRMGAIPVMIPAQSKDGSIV
# Sequence of CD46 (human) (P15529 35-392): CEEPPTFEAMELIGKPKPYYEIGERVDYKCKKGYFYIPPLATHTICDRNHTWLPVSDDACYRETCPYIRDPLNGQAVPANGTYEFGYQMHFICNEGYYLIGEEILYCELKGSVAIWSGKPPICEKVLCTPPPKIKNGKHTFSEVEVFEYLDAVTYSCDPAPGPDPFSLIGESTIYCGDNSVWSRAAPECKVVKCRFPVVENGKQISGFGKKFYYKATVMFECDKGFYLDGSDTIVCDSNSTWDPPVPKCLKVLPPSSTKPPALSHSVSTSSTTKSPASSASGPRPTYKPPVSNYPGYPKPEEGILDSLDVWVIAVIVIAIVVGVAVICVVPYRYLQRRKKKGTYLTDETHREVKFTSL
Substance,Kd (CD46 (human)) [nM],Kd [1] [nM]
HAdV-B11 virion (complex),0.0048,–
HAdV-D26 virion (complex),–,0.076
HAdV-D37 virion (complex),0.1,–
HAdV-D39 virion (complex),0.1,–
